In the supplement of paper PMC10567573:

B1: RIPK4 (parent)
chain: AAWQGHLPIVKLLAKQPGVSVNAQ
B2: ESRRG (parent)
chain: YSCPATNECEITKRRRKSCQACRF

Variants of: B1
Test: protein stability index of a GFP-peptide fusion (GPS, HEK-293T) (PSI 1-6); higher = more stable
Settings: c terminus: a fixed tail appended
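Further: lentivirally expressed fusions sorted by FACS into six bins by GFP to DsRed ratio, PSI derived from sequencing read proportions per bin multiplied by bin number.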

Protein stability index, by site and new letter:
G18: Q 2.53; N 2.07
A14: Q 2.14
Q24: C 2.19
S20: L 1.76
P17: S 2.46
L13: Y 2.94
K11: Q 2.35
G5: K 1.97; A 2.02
H6: D 2.98

Variants of: B2
Test: as above
Settings: c terminus: a fixed tail appended

Protein stability index, by site and new letter:
A5: H 3.73; P 3.12; L 3.2; W 1.51; Y 3.05; S 3.33; M 3; Q 3.26; C 3.43; T 2.78; G 3.58; E 3.73; I 3.01; K 3.36; V 3.03; F 2.79; D 3.38; N 3.27; R 2.89
E8: K 3.14; M 2.88; H 3.14; V 3.05; S 2.97; F 1.91; Y 2.32; N 3.29; D 2.92; C 3.12; P 3.26; T 3.25; I 2.87; G 3.54; Q 3.52; R 3.13; L 3.02; W 1.96; A 3.46
C3: T 3.99; M 3.55; L 3.53; Q 3.62; E 4.09; Y 3.81; D 3.72; K 3.83; P 3.58; W 2.83; V 4.16; N 3.79; R 3.05; H 2.7; I 3.37; F 3.12; A 4.23; G 3.44; S 3.56
I11: R 3.37; C 3.83; H 4.47; V 3.25; E 3.95; T 3.69; S 3.63; L 2.88; G 3.47; Q 3.51; A 3.39; M 3.14; W 3.44; P 3.58; N 3.55; Y 3.04; D 3.41; F 3.26; K 3.25
P4: H 2.91; A 3.03; V 3.09; W 1.47; C 2.92; Y 2.59; G 2.93; S 3.11; T 3.21; D 3.48; M 2.76; L 2.64; F 2.39; N 3.24; K 3.18; R 3.09; I 2.53; Q 3.11; E 3.2
E10: Q 3.59; S 3.14; K 3.41; H 3.08; V 2.66; W 2.22; Y 2.39; G 3.23; R 3.44; I 2.8; P 3.09; C 3.06; L 3.06; T 3.27; N 3.41; A 3.27; M 2.9; D 3.34; F 2.53
K17: C 4.5; D 3.37; G 3.51; S 3; A 3.17; H 3.82; N 3.25; R 3.31; V 2.97; M 3.06; W 2.83; E 3.63; P 2.9; T 2.92; I 3.51; Y 2.35; F 2.69; L 3.06; Q 3.29
R14: Y 3.17; G 3.7; H 4.23; I 3.03; M 3.09; W 3.11; V 3.03; P 3.13; A 3.51; E 3.62; S 3.6; L 2.81; K 3.52; F 3.19; N 3.63; D 3.76; T 3.42; Q 3.48; C 4.61
T6: V 3.1; L 3.1; F 2.47; N 4.04; Q 3.42; G 3.65; E 3.37; D 3.71; C 3.76; A 3.13; S 3.1; P 2.2; R 3.46; K 3.72; I 3.31; Y 2.29; M 3.38; W 2.26; H 3.65
C9: K 3.91; T 3.61; S 3.66; E 3.79; P 3.5; N 3.18; D 3.4; Y 2.69; W 2.54; G 3.82; A 3.39; I 3.48; V 3.46; M 3.59; H 3.68; L 3.08; F 3.32; Q 3.47; R 3.38
K13: H 3.44; V 3.59; W 2.52; I 3.15; S 3.5; P 3.46; E 3.45; L 3.15; Y 2.78; C 3.56; N 3.43; M 3.15; F 2.67; D 3.68; R 3.64; A 3.28; G 3.16; Q 3.45; T 3.2
R16: V 3.32; Y 3; C 3.72; L 2.92; D 3.75; M 3.07; Q 3.66; W 3.06; F 2.92; K 3.62; H 3.8; G 3.66; N 3.69; T 3.96; P 3.24; A 3.48; S 3.8; E 3.63; I 3.31
T12: L 2.71; Q 3.25; A 3.32; K 3.27; D 3.74; R 3.56; I 2.69; E 3.75; N 3.59; F 2.19; Y 2.69; M 2.97; S 3.46; G 3.41; H 4.38; P 3.86; C 3.85; V 3.33; W 2.31
Y1: K 3.92; Q 4.19; N 4.29; F 3.36; V 3.93; W 3.11; P 4.32; A 4.13; G 4.02; E 4.13; I 3.6; C 4.88; H 3.8; S 4.28; D 4.05; R 4.21; T 4.35; L 4.09; M 4.2
N7: P 3.55; C 2.42; V 3.14; G 3.29; E 3.19; Q 3.36; S 3.01; T 3.61; L 2.74; W 2.35; I 2.83; R 3.56; M 2.96; A 2.64; D 3.31; Y 2.06; F 2.52; K 3.57; H 3.88
S2: Q 2.55; L 2.96; V 2.23; F 3; A 2.1; E 4.1; T 2.85; K 3.15; N 3.4; H 2.47; R 4.17; G 3.58; P 2.98; I 1.92; W 2.33; M 3.27; C 2.52; D 3.87; Y 2.89
R15: W 2.81; V 3.22; M 2.96; I 3.32; G 3.91; H 4.16; P 3.28; Q 3.38; D 4.01; K 2.91; C 3.46; N 3.62; Y 3.34; E 3.37; L 2.79; A 3.33; T 3.22; S 3.48; F 2.96
